Results reported in patent publication US20120122239A1.

Key:
[1] = biological target: human pro B-type natriuretic peptide (HyTest, Turku, Finland; Catalog No. 8PRO8) (human); assay: sandwich CMIA, capture 15F11, analyte 0.0 pM (blank)
[2] = biological target: glycosylated human proBNP (HyTest, Turku, Finland; Catalog No. 8GOB2) (human); assay: as above
[3] = biological target: human NT-pro B-type natriuretic peptide (HyTest, Turku, Finland; Catalog No. 8NT1) (human); assay: as above
[4] = biological target: human pro B-type natriuretic peptide (HyTest, Turku, Finland; Catalog No. 8PRO8) (human); assay: sandwich CMIA, capture 15F11, analyte 43.3 pM
[5] = biological target: glycosylated human proBNP (HyTest, Turku, Finland; Catalog No. 8GOB2) (human); assay: sandwich CMIA, capture 15F11, analyte 43.3 pM
[6] = biological target: human NT-pro B-type natriuretic peptide (HyTest, Turku, Finland; Catalog No. 8NT1) (human); assay: sandwich CMIA, capture 15F11, analyte 43.3 pM
[7] = biological target: human pro B-type natriuretic peptide (HyTest, Turku, Finland; Catalog No. 8PRO8) (human); assay: sandwich CMIA, capture 15C4, 43.3 pM, against human NT-proBNP
[8] = biological target: glycosylated human proBNP (HyTest, Turku, Finland; Catalog No. 8GOB2) (human); assay: as above
[9] = biological target: glycosylated human proBNP (HyTest, Turku, Finland; Catalog No. 8GOB2) (human); assay: sandwich CMIA, capture 15C4, analyte 288.7 pM
[10] = biological target: human NT-pro B-type natriuretic peptide (HyTest, Turku, Finland; Catalog No. 8NT1) (human); assay: sandwich CMIA, capture 15C4, analyte 288.7 pM
[11] = biological target: glycosylated human proBNP (HyTest, Turku, Finland; Catalog No. 8GOB2) (human); assay: sandwich CMIA, capture 15C4, 288.7 pM, against human NT-proBNP
[12] = biological target: human pro B-type natriuretic peptide (HyTest, Turku, Finland; Catalog No. 8PRO8) (human); assay: sandwich CMIA, capture 15F11, analyte 577.4 pM
[13] = biological target: glycosylated human proBNP (HyTest, Turku, Finland; Catalog No. 8GOB2) (human); assay: sandwich CMIA, capture 15F11, analyte 577.4 pM
[14] = biological target: human NT-pro B-type natriuretic peptide (HyTest, Turku, Finland; Catalog No. 8NT1) (human); assay: sandwich CMIA, capture 15F11, analyte 577.4 pM
[15] = biological target: human pro B-type natriuretic peptide (HyTest, Turku, Finland; Catalog No. 8PRO8) (human); assay: sandwich CMIA, capture 15F11, analyte 288.7 pM
[16] = biological target: glycosylated human proBNP (HyTest, Turku, Finland; Catalog No. 8GOB2) (human); assay: sandwich CMIA, capture 15F11, analyte 288.7 pM
[17] = biological target: human NT-pro B-type natriuretic peptide (HyTest, Turku, Finland; Catalog No. 8NT1) (human); assay: sandwich CMIA, capture 15F11, analyte 288.7 pM
[18] = biological target: human pro B-type natriuretic peptide (HyTest, Turku, Finland; Catalog No. 8PRO8) (human); assay: sandwich CMIA, capture 15C4, analyte 577.4 pM
[19] = biological target: glycosylated human proBNP (HyTest, Turku, Finland; Catalog No. 8GOB2) (human); assay: sandwich CMIA, capture 15C4, analyte 577.4 pM
[20] = biological target: human NT-pro B-type natriuretic peptide (HyTest, Turku, Finland; Catalog No. 8NT1) (human); assay: sandwich CMIA, capture 15C4, analyte 577.4 pM
[21] = biological target: human pro B-type natriuretic peptide (HyTest, Turku, Finland; Catalog No. 8PRO8) (human); assay: sandwich CMIA, capture 15C4, analyte 86.6 pM
[22] = biological target: glycosylated human proBNP (HyTest, Turku, Finland; Catalog No. 8GOB2) (human); assay: sandwich CMIA, capture 15C4, analyte 86.6 pM
[23] = biological target: human NT-pro B-type natriuretic peptide (HyTest, Turku, Finland; Catalog No. 8NT1) (human); assay: sandwich CMIA, capture 15C4, analyte 86.6 pM
[24] = biological target: human pro B-type natriuretic peptide (HyTest, Turku, Finland; Catalog No. 8PRO8) (human); assay: sandwich CMIA, capture 15C4, analyte 0.0 pM (blank)
[25] = biological target: glycosylated human proBNP (HyTest, Turku, Finland; Catalog No. 8GOB2) (human); assay: as above
[26] = biological target: human NT-pro B-type natriuretic peptide (HyTest, Turku, Finland; Catalog No. 8NT1) (human); assay: as above
[27] = biological target: human pro B-type natriuretic peptide (HyTest, Turku, Finland; Catalog No. 8PRO8) (human); assay: sandwich CMIA, capture 15C4, 577.4 pM, against human NT-proBNP
[28] = biological target: glycosylated human proBNP (HyTest, Turku, Finland; Catalog No. 8GOB2) (human); assay: as above
[29] = biological target: human pro B-type natriuretic peptide (HyTest, Turku, Finland; Catalog No. 8PRO8) (human); assay: sandwich CMIA, 15C4 (63-71) with 18H5 (13-20), against human NT-proBNP
[30] = biological target: human pro B-type natriuretic peptide (HyTest, Turku, Finland; Catalog No. 8PRO8) (human); assay: sandwich CMIA, capture 15F11, analyte 86.6 pM
[31] = biological target: glycosylated human proBNP (HyTest, Turku, Finland; Catalog No. 8GOB2) (human); assay: sandwich CMIA, capture 15F11, analyte 86.6 pM
[32] = biological target: human NT-pro B-type natriuretic peptide (HyTest, Turku, Finland; Catalog No. 8NT1) (human); assay: sandwich CMIA, capture 15F11, analyte 86.6 pM
[33] = biological target: human pro B-type natriuretic peptide (HyTest, Turku, Finland; Catalog No. 8PRO8) (human); assay: sandwich CMIA, capture 15C4, analyte 43.3 pM
[34] = biological target: glycosylated human proBNP (HyTest, Turku, Finland; Catalog No. 8GOB2) (human); assay: sandwich CMIA, capture 15C4, analyte 43.3 pM
[35] = biological target: human NT-pro B-type natriuretic peptide (HyTest, Turku, Finland; Catalog No. 8NT1) (human); assay: sandwich CMIA, capture 15C4, analyte 43.3 pM
[36] = biological target: human pro B-type natriuretic peptide (HyTest, Turku, Finland; Catalog No. 8PRO8) (human); assay: sandwich CMIA, capture 15C4, 86.6 pM, against human NT-proBNP
[37] = biological target: glycosylated human proBNP (HyTest, Turku, Finland; Catalog No. 8GOB2) (human); assay: as above
[38] = biological target: human pro B-type natriuretic peptide (HyTest, Turku, Finland; Catalog No. 8PRO8) (human); assay: sandwich CMIA, 15C4 (63-71) with 13G12 (13-20), against human NT-proBNP
[39] = biological target: human pro B-type natriuretic peptide (HyTest, Turku, Finland; Catalog No. 8PRO8) (human); assay: sandwich CMIA, capture 15C4, analyte 288.7 pM
[40] = biological target: human pro B-type natriuretic peptide (HyTest, Turku, Finland; Catalog No. 8PRO8) (human); assay: sandwich CMIA, capture 15C4, 288.7 pM, against human NT-proBNP
[41] = biological target: human pro B-type natriuretic peptide (HyTest, Turku, Finland; Catalog No. 8PRO8) (human); assay: sandwich CMIA, 15C4 (63-71) with 16F3 (13-20), against human NT-proBNP

human NT-pro B-type natriuretic peptide (HyTest, Turku, Finland; Catalog No. 8NT1) (human), sequence (chain, as listed by the source): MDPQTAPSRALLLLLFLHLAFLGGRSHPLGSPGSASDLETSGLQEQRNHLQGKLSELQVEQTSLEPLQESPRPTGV
glycosylated human proBNP (HyTest, Turku, Finland; Catalog No. 8GOB2) (human), sequence (chain, as listed by the source): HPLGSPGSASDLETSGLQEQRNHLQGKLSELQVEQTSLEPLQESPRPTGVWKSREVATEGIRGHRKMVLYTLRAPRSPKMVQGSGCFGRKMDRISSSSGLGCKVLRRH

Substance	Analyte rlus [1]	Analyte rlus [2]	Analyte rlus [3]	Analyte rlus [4]	Analyte rlus [5]	Analyte rlus [6]	% Cross-reactivity [7]	% Cross-reactivity [8]	Analyte rlus [9]	Analyte rlus [10]	% Cross-reactivity [11]	Analyte rlus [12]	Analyte rlus [13]	Analyte rlus [14]	Analyte rlus [15]	Analyte rlus [16]	Analyte rlus [17]	Analyte rlus [18]	Analyte rlus [19]	Analyte rlus [20]	other results
anti-human NT-proBNP/anti-human proBNP labeled monoclonal antibody 18H5 (HyTest, Turku, Finland)	626 rlus	626 rlus	626 rlus	628 rlus	618 rlus	621 rlus	15.5%	0.3%	1230 rlus	162000 rlus	0.3%	1440 rlus	754 rlus	664 rlus	949 rlus	663 rlus	708 rlus	46500 rlus	1580 rlus	337000 rlus	Analyte rlus [21]: 6590 rlus; Analyte rlus [22]: 783 rlus; Analyte rlus [23]: 39100 rlus; Analyte rlus [24]: 704 rlus; Analyte rlus [25]: 704 rlus; Analyte rlus [26]: 704 rlus; % Cross-reactivity [27]: 13.6%; % Cross-reactivity [28]: 0.3%; % Cross-reactivity [29]: 10%; Analyte rlus [30]: 664 rlus; Analyte rlus [31]: 737 rlus; Analyte rlus [32]: 636 rlus; Analyte rlus [33]: 3380 rlus; Analyte rlus [34]: 756 rlus; Analyte rlus [35]: 18000 rlus; % Cross-reactivity [36]: 15.3%; % Cross-reactivity [37]: 0.2%
anti-human NT-proBNP/anti-human proBNP labeled monoclonal antibody 13G12 (HyTest, Turku, Finland)	841 rlus	841 rlus	841 rlus	800 rlus	798 rlus	777 rlus	14.1%	0.1%	967 rlus	131000 rlus	0.1%	1080 rlus	778 rlus	805 rlus	920 rlus	831 rlus	820 rlus	37200 rlus	1240 rlus	309000 rlus	% Cross-reactivity [38]: 10%; Analyte rlus [39]: 16700 rlus; % Cross-reactivity [40]: 12.1%; Analyte rlus [21]: 4080 rlus; Analyte rlus [22]: 912 rlus; Analyte rlus [23]: 25600 rlus; Analyte rlus [24]: 892 rlus; Analyte rlus [25]: 892 rlus; Analyte rlus [26]: 892 rlus; % Cross-reactivity [27]: 11.8%; % Cross-reactivity [28]: 0.1%; Analyte rlus [30]: 802 rlus; Analyte rlus [31]: 767 rlus; Analyte rlus [32]: 761 rlus; Analyte rlus [33]: 2220 rlus; Analyte rlus [34]: 905 rlus; Analyte rlus [35]: 10300 rlus; % Cross-reactivity [36]: 12.9%; % Cross-reactivity [37]: 0.1%
anti-human NT-proBNP/anti-human proBNP labeled monoclonal antibody 16F3 (HyTest, Turku, Finland)	640 rlus	640 rlus	640 rlus	624 rlus	586 rlus	630 rlus	9.2%	-3.3%	827 rlus	140000 rlus	-0.2%	914 rlus	635 rlus	631 rlus	720 rlus	643 rlus	696 rlus	34700 rlus	1090 rlus	320000 rlus	% Cross-reactivity [41]: 10%; Analyte rlus [39]: 13700 rlus; % Cross-reactivity [40]: 9.1%; Analyte rlus [21]: 4060 rlus; Analyte rlus [22]: 861 rlus; Analyte rlus [23]: 26500 rlus; Analyte rlus [24]: 1040 rlus; Analyte rlus [25]: 1040 rlus; Analyte rlus [26]: 1040 rlus; % Cross-reactivity [27]: 10.6%; % Cross-reactivity [28]: 0%; Analyte rlus [30]: 621 rlus; Analyte rlus [31]: 587 rlus; Analyte rlus [32]: 592 rlus; Analyte rlus [33]: 1990 rlus; Analyte rlus [34]: 691 rlus; Analyte rlus [35]: 11400 rlus; % Cross-reactivity [36]: 11.9%; % Cross-reactivity [37]: -0.7%
